# Assay results: patent publication US20180148496A1 (HUAHUI HEALTH, published 2018)
# T1: NC36b: peptide comprising residues 4-38 of the pre-S1 domain of HBV L protein with a biotin modification at … (Hepatitis B virus (genotype  …, C-terminal K-Biotin))
# T1 peptide: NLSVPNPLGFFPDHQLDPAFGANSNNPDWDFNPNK
# Columns and labels:
# [1] = target: pre-S1 domain of the L envelope protein on HBV (genotype D) virus (Hepatitis B virus genotype D); experiment: cell-based or functional assay
# [2] = target: pre-S1 domain of the L envelope protein on HBV (genotype B) virus (Hepatitis B virus genotype B); experiment: cell-based or functional assay
# [3] = target: pre-S1 domain of the L envelope protein on HBV (genotype C) virus (Hepatitis B virus genotype C); experiment: cell-based or functional assay
# [4] = target: T1, NC36b: peptide comprising residues 4-38 …; experiment: ELISA on peptide captured by streptavidin
binder,measurement,setting,value
"A14 (antibody, V domains shown) VH: QVQLQQSGPGLVKPSQTLSLTCAISGDSVSSNSAAWNWIRQSPSRGLEWLGRTYYRSKWYNDYAVSVKSRITINPDTSKNQFSLQLNSVTPEDTAVYYCARGTRWGMDVWGQGTLVTVSS VL: QSVLTQPPSASGTPGQRVTISCSGSSSNIGSYYVYWYQQFPGTAPKLLIYGNNQRPSGVPDRFSGSKSGTSASLAITGLQAEDEADYYCQSYDSSLSGVIFGGGTKLTVL","HBV (genotype D) neutralization activity, against HBIG",[1],> 1000 fold
same,"IC50 of HBV neutralization, genotype D",[1],0.01 nM
same,"IC50 of HBV neutralization, genotype B",[2],0.08 nM
same,"IC50 of HBV neutralization, genotype C",[3],0.03 nM
"2H5 (antibody, V domains shown) VH: QVQLQQSGPGLVKPSQTLSLTCGISGDSVSSKSAAWNWIRQSPSRGLEWLGRTYYRSKWHNDYAVSVKSRITINPDTSKNQFSLQLNSVTPEDTAVYYCARGQMGALDVWGQGTTVTVSS VL: QSVLTQPPSASGTPGQRVTISCSGSSSNIGSYYVYWYQQFPGTAPKLLIYGNNQRPSGVPDRFSGSKSGTSASLAITGLQAEDEADYYCQSYDSSLSGVIFGGGTKLTVL","IC50 in HBV infection assay, against KR127",[1],11 fold
"#8 (antibody, V domains shown) VH: QVQLQQSGPGLVKPSQTLSLTCAISGDSVSSNSAAWNWIRQSPSRGLEWLGRTYYRSKWYNDYAVSVKSRITINPDTSKNQFSLQLNSVTPEDTAVYYCARGTRWGMDVWGQGTLVTVSS VL: QSVVTQPPSVSAAPGQKVTISCSGSSSNIGNYYVSWYQHLPGTAPKLLIYDNAKRPSGIPDRFSGSKSGTSATLGITGLRAEDEADYYCQSYDNSLSGLVFGGGTKLTVL","HBV (genotype D) neutralization, against A14",[1],5 fold
"m36 (antibody, V domains shown) VH: QMQLVQSGGGLVQPGRSLRLSCAASGFTFDDYAMHWVRQAPGKGLEWVSGISWNSGSIGYADSVKGRFTISRDNAKNSLYLQMNSLRAEDTALYYCAKTSYGGAFDIWGQGTMVTVSS VL: QPVLTQSPSASGTPGQRVTISCSGNTSNIGSYYAYWYQQLPGTAPKLLIYDNNQRPSGIPARFSGSKSGTSASLAISGLQSEDEADYYCATWDDSLNGPVFGGGTKVTVL",binding result,[4],binds
"m1Q (antibody, V domains shown, also called m10Q (label of the VL entry)) VH: QVQLVESGGGVVQPGRSLRLSCAASGFTFSSYAMHWVRQAPGKGLEQVAVISYDGSNKYYVDSVKGRFTISRDNSKNTLYLQMNSLRAEDTAVYYCARSTYGMDVWGQGTTVTVSS VL: DVVMTQSPLSLPVTLGQSASISCRSSQSLVHSDGNTYLNWFQQRPGQSPRRLIYKVSNRDSGVPDRFSGSGSDTDFTLEISRVEAEDVGIYYCMQGTHWWTFGQGTKLDIK",binding result,[4],binds
